Patent publication US20260041702A1

B1: recombinant, human C-terminal (domains III-IV) CCN2 coupled to TriCEPS v3.0 (ligand, UniProt P29279 197-349, looked up)
chain: ANCLVQTTEWSACSKTCGMGISTRVTNDNASCRLEKQSRLCMVRPCEADLEENIKKGKKCIRTPKISKPIKFELSGCTSMKTYRAKFCGVCTDGRCCTPHRTTTLPVEFKCPDGEVMKKNMMFIKTCACHYNCPGDNDIFESLYYRKMYGDMA
modifications: coupled to the trifunctional TriCEPS v3.0 molecule (site of coupling not stated)

How the values were obtained:
[1] = target: TRFE receptor, TRF1, on Rat2 fibroblasts (rat) (UniProt Q99376); experiment: HATRIC-LRC (LRC-TriCEPS) ligand-receptor capture on Rat2 fibroblasts, LC-MS/MS; positive control of the screen
Sequence of UniProt Q99376 (Q99376 whole entry): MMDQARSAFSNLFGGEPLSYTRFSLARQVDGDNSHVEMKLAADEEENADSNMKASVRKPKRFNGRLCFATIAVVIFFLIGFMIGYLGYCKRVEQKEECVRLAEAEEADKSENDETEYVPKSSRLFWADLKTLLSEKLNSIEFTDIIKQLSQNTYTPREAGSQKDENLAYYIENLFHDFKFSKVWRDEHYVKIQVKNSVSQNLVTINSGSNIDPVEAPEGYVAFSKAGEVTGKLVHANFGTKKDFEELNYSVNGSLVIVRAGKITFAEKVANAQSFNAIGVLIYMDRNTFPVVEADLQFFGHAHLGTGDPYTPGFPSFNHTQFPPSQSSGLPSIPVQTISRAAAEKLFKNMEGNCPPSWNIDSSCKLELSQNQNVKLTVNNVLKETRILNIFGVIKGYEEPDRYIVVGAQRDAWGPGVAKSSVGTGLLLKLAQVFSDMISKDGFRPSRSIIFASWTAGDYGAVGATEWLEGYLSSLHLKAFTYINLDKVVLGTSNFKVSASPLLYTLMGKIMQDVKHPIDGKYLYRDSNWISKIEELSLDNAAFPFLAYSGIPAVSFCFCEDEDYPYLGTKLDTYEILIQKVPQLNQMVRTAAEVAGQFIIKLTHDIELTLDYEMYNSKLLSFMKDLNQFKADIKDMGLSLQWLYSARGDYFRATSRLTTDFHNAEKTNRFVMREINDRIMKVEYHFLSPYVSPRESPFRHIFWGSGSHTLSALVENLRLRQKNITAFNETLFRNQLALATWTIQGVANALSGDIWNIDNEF

[2] = target: PTK7 on HEK293A cells (human) (UniProt Q13308); experiment: HATRIC-LRC (LRC-TriCEPS) ligand-receptor capture on HEK293A cells, LC-MS/MS; reference BSA control ligand
Sequence of UniProt Q13308 (Q13308 31-1070 limits assumed): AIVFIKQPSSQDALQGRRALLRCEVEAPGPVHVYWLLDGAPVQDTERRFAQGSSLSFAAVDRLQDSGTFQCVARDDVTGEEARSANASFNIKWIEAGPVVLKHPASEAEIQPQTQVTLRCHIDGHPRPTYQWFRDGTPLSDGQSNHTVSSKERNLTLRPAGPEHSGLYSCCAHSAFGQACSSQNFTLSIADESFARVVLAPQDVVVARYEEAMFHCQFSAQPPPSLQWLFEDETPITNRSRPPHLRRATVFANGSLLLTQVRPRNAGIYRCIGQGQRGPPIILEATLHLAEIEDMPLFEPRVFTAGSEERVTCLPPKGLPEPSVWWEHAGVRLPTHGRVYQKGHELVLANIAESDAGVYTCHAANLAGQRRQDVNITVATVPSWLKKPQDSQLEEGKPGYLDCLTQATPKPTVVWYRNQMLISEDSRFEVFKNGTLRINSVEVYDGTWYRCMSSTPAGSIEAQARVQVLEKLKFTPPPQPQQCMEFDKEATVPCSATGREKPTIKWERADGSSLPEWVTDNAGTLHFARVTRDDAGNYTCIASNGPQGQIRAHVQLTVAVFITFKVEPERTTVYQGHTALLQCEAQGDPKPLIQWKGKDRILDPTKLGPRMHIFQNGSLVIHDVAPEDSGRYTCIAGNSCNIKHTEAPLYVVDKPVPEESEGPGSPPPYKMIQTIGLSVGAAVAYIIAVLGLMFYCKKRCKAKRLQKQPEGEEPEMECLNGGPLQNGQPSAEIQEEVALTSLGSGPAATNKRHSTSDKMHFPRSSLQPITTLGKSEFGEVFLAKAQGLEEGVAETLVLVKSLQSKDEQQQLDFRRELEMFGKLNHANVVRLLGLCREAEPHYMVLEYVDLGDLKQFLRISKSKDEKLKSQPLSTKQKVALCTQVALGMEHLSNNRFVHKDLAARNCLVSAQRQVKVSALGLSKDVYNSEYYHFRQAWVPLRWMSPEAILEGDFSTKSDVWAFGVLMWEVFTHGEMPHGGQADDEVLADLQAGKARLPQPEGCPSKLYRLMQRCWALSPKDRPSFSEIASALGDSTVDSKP

[3] = target: GPC1 on HEK293A cells (human) (UniProt P35052); experiment: as above
Sequence of UniProt P35052 (P35052 24-530 limits assumed): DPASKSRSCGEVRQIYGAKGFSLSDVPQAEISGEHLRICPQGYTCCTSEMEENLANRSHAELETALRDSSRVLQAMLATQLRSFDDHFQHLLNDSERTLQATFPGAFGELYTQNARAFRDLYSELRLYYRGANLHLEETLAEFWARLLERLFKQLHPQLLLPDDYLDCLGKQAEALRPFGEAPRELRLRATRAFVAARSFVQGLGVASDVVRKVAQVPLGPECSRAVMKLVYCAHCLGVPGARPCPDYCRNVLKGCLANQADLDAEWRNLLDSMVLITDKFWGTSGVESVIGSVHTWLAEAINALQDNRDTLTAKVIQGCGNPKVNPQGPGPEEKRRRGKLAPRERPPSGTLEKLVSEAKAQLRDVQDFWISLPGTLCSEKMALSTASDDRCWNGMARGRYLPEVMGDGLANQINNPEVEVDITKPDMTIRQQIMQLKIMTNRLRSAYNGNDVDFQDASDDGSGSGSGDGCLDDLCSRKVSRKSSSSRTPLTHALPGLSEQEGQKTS

[4] = target: GPC4 on HEK293A cells (human) (UniProt O75487); experiment: as above
Sequence of UniProt O75487 (O75487 19-529 limits assumed): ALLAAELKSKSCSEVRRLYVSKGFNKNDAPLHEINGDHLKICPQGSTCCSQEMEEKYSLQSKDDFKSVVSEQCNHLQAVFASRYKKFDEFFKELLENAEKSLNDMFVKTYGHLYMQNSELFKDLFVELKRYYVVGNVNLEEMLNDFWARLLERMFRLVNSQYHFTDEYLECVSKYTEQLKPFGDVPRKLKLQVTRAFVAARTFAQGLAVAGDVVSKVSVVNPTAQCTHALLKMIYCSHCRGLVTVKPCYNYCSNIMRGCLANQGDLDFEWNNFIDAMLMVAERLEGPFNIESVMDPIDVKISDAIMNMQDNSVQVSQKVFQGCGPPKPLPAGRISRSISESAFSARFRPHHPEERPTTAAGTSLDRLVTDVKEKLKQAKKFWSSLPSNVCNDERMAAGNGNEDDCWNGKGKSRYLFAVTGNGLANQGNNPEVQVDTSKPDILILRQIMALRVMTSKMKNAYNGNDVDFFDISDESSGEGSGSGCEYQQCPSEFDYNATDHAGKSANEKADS

[5] = target: CCN1 found in the HEK293A cell screen (human) (UniProt O00622); experiment: as above
Sequence of UniProt O00622 (O00622 25-381 limits assumed): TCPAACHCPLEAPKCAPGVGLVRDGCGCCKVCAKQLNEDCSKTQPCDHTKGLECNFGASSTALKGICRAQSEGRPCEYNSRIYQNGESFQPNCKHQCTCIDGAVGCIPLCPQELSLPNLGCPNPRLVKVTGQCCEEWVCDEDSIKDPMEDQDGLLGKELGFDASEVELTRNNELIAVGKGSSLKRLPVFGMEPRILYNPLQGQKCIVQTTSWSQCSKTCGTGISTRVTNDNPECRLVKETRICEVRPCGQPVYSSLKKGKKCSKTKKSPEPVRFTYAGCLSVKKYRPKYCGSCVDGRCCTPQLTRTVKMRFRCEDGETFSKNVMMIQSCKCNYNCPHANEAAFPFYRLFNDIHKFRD

[6] = target: PTK7 on HEK293A cells (human) (UniProt Q13308); experiment: HATRIC-LRC (LRC-TriCEPS) ligand-receptor capture on HEK293A cells, LC-MS/MS; reference TRFE control ligand
[7] = target: GPC1 on HEK293A cells (human) (UniProt P35052); experiment: as above
[8] = target: GPC4 on HEK293A cells (human) (UniProt O75487); experiment: as above
[9] = target: CCN1 found in the HEK293A cell screen (human) (UniProt O00622); experiment: as above
[10] = target: GPC1 on Rat2 fibroblasts (rat) (UniProt P35053); experiment: HATRIC-LRC (LRC-TriCEPS) ligand-receptor capture on Rat2 fibroblasts, LC-MS/MS; reference BSA control ligand
Sequence of UniProt P35053 (P35053 24-530): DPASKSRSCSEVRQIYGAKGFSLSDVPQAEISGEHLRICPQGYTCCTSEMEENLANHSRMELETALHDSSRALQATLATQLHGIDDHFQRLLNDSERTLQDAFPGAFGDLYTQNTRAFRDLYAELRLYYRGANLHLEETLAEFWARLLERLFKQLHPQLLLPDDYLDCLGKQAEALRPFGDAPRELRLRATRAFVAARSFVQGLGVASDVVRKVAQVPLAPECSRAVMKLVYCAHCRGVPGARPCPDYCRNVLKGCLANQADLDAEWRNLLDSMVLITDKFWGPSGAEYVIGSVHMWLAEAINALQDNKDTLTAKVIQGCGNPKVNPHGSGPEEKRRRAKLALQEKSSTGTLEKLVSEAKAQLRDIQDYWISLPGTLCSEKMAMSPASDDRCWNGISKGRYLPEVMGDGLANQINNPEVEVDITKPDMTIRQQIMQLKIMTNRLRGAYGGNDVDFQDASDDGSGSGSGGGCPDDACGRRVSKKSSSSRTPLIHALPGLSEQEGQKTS

[11] = target: PTK7 on Rat2 fibroblasts (rat); experiment: as above
[12] = target: CCN1 found in the Rat2 cell screen (rat) (UniProt Q9ES72); experiment: as above
Sequence of UniProt Q9ES72 (Q9ES72 25-379 limits assumed): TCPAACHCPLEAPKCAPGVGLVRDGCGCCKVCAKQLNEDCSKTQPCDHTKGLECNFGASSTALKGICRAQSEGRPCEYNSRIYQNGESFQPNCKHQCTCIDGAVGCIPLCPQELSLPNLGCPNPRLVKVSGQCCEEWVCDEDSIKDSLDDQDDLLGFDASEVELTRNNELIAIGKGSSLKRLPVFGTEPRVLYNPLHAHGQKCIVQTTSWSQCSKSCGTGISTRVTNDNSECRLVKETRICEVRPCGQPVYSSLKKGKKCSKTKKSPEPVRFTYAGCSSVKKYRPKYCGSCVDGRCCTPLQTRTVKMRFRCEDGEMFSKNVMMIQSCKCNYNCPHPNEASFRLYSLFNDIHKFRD

[13] = target: GPC1 on Rat2 fibroblasts (rat) (UniProt P35053); experiment: HATRIC-LRC (LRC-TriCEPS) ligand-receptor capture on Rat2 fibroblasts, LC-MS/MS; reference TRFE control ligand
[14] = target: PTK7 on Rat2 fibroblasts (rat); experiment: as above
[15] = target: CCN1 found in the Rat2 cell screen (rat) (UniProt Q9ES72); experiment: as above

Row | Molecule | log 2 (FC), TRFE group against d34CCN2 group (log2 fold change) [1] | log 2 (FC) enrichment relative to BSA (log2 fold change) [2] | log 2 (FC) enrichment relative to BSA (log2 fold change) [3] | log 2 (FC) enrichment relative to BSA (log2 fold change) [4] | log 2 (FC) enrichment relative to BSA (log2 fold change) [5] | log 2 (FC) enrichment relative to TRFE (log2 fold change) [6] | log 2 (FC) enrichment relative to TRFE (log2 fold change) [7] | log 2 (FC) enrichment relative to TRFE (log2 fold change) [8] | log 2 (FC) enrichment relative to TRFE (log2 fold change) [9] | log 2 (FC) enrichment relative to BSA (log2 fold change) [10] | log 2 (FC) enrichment relative to BSA (log2 fold change) [11] | log 2 (FC) enrichment relative to BSA (log2 fold change) [12] | log 2 (FC) enrichment relative to TRFE (log2 fold change) [13] | log 2 (FC) enrichment relative to TRFE (log2 fold change) [14] | log 2 (FC) enrichment relative to TRFE (log2 fold change) [15]
1 | transferrin (TRFE) coupled to TriCEPS v3.0 (ligand) | -2.8 | – | – | – | – | – | – | – | – | – | – | – | – | – | –
2 | B1 | – | 3.26 | 2.85 | 2.85 | 5.63 | 3.09 | 4.19 | 2.84 | 4.73 | 4.2 | 2.7 | 3.4 | 4.4 | 3 | 4.1
